Laboratory results as given in patent US20160369008A1.

Tests used:
[1] = target: active PAI-1 in monkey plasma (cynomolgus monkey) (UniProt G7P138); test: ELISA: inhibition of the capture of active PAI-1 of monkey plasma on immobilised uPA (Example 9)
[2] = target: tPA-monkey PAI-1 complex (monkey); test: ELISA, tPA-monkey PAI-1 complex on the plate
[3] = target: human PAI-1 in complex with uPA (human) (UniProt P05121); test: ELISA, uPA-PAI-1 complex on the plate
[4] = target: latent human PAI-1 (human) (UniProt P05121); test: ELISA, latent human PAI-1 on the plate
[5] = target: active PAI-1 in human plasma (human) (UniProt P05121); test: ELISA: inhibition of the capture of active PAI-1 of human plasma on immobilised uPA (Example 9)
[6] = target: human PAI-1 in complex with tPA (human) (UniProt P05121); test: ELISA, tPA-PAI-1 complex on the plate
[7] = target: recombinant active human PAI-1 (human) (UniProt P05121); test: cell-based or functional assay
[8] = target: latent monkey PAI-1 (monkey) (UniProt G7P138); test: ELISA, latent monkey PAI-1 on the plate
[9] = target: active human PAI-1 in complex with vitronectin (human) (UniProt P05121); test: ELISA, VTN-PAI-1 complex on the plate
[10] = target: active monkey PAI-1 in complex with vitronectin (monkey); test: ELISA, VTN-monkey PAI-1 complex on the plate
[11] = target: uPA-monkey PAI-1 complex (monkey) (UniProt P00749); test: ELISA, uPA-monkey PAI-1 complex on the plate

Chain of MEDI-579 (antibody) (VH): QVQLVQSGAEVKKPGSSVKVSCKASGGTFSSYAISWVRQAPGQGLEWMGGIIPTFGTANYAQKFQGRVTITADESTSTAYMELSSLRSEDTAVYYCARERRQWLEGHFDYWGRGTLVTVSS
Chain of MEDI-579 (antibody) (VL): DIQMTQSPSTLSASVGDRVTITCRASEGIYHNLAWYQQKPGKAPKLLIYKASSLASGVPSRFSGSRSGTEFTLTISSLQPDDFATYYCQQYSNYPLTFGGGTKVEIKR
Chain of active monkey PAI-1 in complex with vitronectin (monkey) (P04004 20-478, one chain of several): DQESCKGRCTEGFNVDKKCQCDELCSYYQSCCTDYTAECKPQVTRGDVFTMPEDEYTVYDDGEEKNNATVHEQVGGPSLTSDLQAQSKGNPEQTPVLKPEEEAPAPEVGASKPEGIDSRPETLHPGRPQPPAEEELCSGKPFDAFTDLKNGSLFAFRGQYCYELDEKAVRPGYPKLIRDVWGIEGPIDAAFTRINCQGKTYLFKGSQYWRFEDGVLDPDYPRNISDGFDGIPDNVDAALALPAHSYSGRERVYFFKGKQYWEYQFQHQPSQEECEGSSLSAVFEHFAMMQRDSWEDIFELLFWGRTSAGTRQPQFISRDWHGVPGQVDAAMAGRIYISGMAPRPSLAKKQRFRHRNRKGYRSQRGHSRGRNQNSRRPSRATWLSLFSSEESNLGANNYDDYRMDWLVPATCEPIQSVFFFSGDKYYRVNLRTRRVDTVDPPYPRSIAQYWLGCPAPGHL
Chain of tPA-monkey PAI-1 complex (monkey) (P00750 36-562, one chain of several): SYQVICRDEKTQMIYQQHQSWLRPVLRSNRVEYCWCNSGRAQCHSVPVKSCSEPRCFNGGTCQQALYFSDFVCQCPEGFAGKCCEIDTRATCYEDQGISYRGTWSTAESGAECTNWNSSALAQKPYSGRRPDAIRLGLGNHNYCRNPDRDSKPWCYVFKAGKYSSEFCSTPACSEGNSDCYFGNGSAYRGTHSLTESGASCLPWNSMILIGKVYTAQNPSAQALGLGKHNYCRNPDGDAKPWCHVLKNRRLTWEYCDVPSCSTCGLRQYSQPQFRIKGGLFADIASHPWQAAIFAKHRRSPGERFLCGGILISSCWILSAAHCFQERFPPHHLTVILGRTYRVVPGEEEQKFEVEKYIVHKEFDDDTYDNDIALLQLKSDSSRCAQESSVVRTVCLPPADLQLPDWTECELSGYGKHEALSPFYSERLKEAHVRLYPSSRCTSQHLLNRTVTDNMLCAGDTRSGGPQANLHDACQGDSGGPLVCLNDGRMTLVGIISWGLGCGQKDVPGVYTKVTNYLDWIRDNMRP

IC50 [1]: 0.83 ng/mL
EC50 [2]: 4.3 ng/mL
EC50 [3]: 6.1 ng/mL
EC50 [4]: 22.1 ng/mL
IC50 [5]: 0.73 ng/mL
EC50 [6]: 3.2 ng/mL
EC50 value, taking the activity of uPA as an indicator (cleavage of a fluorogenic uPA substrate peptide) [7]: 42.1 ng/mL
EC50 [8]: 48.2 ng/mL
EC50 [9]: 5.2 ng/mL
EC50 [10]: 4.1 ng/mL
EC50 [11]: 5.4 ng/mL
Substance: MEDI-579 (antibody)
